Consider 19 molecules from patent US20120135923A1, “Use of Melanocortins to Treat Dyslipidemia” (IPSEN PHARMA, S.A.S., priority 2009, published 2012).

Bridge positions count the residues as written; N and C are the ends. Square brackets hold non-standard residues; d marks the D form. Ends that are not written are not given here. d2Nal = N[C@H](Cc1ccc2ccccc2c1)C(=O)O; Bta = N[C@@H](Cc1csc2ccccc12)C(=O)O; Nle = CCCC[C@H](N)C(=O)O; Orn = NCCC[C@H](N)C(=O)O; Dab = NCC[C@H](N)C(=O)O; Dap = NC[C@H](N)C(=O)O

Test [1] concerns the target human melanocortin receptor subtype 1 (hMC1-R) (human), Q01726. The test can be described thus: [125I]-NDP-α-MSH competition, membranes.
Test [2] has as its target human melanocortin receptor subtype 3 (hMC3-R) (human), P41968. The test can be described thus: [125I]-NDP-α-MSH competition, membranes.
Test [3] addresses human melanocortin receptor subtype 4 (hMC4-R) (human), P32245. The test can be described thus: [125I]-NDP-α-MSH competition, membranes.
Test [4] concerns the target human melanocortin receptor subtype 5 (hMC5-R) (human), P33032. The test can be described thus: [125I]-NDP-α-MSH competition, membranes.
Test [5] concerns the target human melanocortin receptor subtype 3 (hMC3-R) (human) (UniProt P41968). The test can be described thus: [125I]-NDP-α-MSH competition, membranes.
Test [6] has as its target human melanocortin receptor subtype 4 (hMC4-R) (human) (UniProt P32245). The test can be described thus: [125I]-NDP-α-MSH competition, membranes.
Test [7] concerns the target human melanocortin receptor subtype 1 (hMC1-R) (human) (UniProt Q01726). Description: [125I]-NDP-α-MSH competition, membranes.
Test [8] deals with human melanocortin receptor subtype 5 (hMC5-R) (human) (UniProt P33032). The test can be described thus: [125I]-NDP-α-MSH competition, membranes.
For the next test, the target named is hMC3-R (human) (UniProt P41968). Description: cell-based or functional assay.
For a further test, the target named is hMC4-R (human) (UniProt P32245). The test can be described thus: cell-based or functional assay.
In the next test the target is hMC5-R (human), P33032. The test can be described thus: competition with [125I]-NDP-α-MSH, CHO-K1 membranes.
The target in a further test is hMC1-R (human) (UniProt Q01726). Description: cell-based or functional assay.
The next test concerns the target hMC5-R (human) (UniProt P33032). The test can be described thus: cell-based or functional assay.

human melanocortin receptor subtype 5 (hMC5-R) (human), P33032, sequence (P33032 whole entry): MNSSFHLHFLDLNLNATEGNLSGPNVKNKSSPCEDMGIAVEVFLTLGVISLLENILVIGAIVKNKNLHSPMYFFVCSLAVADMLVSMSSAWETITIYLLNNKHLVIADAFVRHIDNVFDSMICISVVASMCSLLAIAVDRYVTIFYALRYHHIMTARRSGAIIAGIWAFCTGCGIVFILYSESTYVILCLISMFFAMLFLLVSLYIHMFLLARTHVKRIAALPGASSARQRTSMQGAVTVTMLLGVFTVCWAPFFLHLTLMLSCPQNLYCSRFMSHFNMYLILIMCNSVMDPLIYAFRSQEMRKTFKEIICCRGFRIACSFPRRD
human melanocortin receptor subtype 5 (hMC5-R) (human), sequence (P33032 whole entry): as above
human melanocortin receptor subtype 4 (hMC4-R) (human), P32245, sequence (P32245 whole entry): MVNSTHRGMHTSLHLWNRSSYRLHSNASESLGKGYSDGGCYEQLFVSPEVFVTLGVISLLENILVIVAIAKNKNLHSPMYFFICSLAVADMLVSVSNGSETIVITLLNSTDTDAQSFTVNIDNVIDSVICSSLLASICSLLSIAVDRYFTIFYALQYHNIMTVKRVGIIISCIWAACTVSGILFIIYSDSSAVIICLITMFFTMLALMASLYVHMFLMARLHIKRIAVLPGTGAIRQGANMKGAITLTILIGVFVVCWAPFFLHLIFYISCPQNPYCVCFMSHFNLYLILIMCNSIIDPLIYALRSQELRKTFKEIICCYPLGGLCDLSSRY
human melanocortin receptor subtype 4 (hMC4-R) (human), sequence (P32245 whole entry): as above
hMC4-R (human), sequence (P32245 whole entry): as above
human melanocortin receptor subtype 1 (hMC1-R) (human), Q01726, sequence (Q01726 whole entry): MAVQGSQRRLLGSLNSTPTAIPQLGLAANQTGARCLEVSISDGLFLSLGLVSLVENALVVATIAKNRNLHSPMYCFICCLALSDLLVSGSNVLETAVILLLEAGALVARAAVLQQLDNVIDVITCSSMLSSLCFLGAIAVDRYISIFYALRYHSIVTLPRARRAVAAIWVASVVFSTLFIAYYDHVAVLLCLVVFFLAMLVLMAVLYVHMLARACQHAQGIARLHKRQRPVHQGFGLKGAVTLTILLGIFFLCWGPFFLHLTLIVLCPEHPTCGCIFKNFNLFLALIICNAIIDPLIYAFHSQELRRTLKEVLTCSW
human melanocortin receptor subtype 1 (hMC1-R) (human), sequence (Q01726 whole entry): as above
hMC3-R (human), sequence (P41968 whole entry): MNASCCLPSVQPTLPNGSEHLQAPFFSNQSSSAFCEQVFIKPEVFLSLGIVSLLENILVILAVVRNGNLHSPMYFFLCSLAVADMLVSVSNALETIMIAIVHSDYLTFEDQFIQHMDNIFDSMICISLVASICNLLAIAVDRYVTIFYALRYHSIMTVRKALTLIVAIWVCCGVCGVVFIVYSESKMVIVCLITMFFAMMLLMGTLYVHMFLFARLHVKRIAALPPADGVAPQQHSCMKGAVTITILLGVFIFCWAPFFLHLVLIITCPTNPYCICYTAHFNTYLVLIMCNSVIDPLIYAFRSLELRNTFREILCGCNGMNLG
human melanocortin receptor subtype 3 (hMC3-R) (human), P41968, sequence (P41968 whole entry): as above
human melanocortin receptor subtype 3 (hMC3-R) (human), sequence (P41968 whole entry): as above
hMC5-R (human), sequence (P33032 whole entry): as the sequence (P33032 whole entry) above
hMC1-R (human), sequence (Q01726 whole entry): as the sequence (Q01726 whole entry) above
hMC5-R (human), P33032, sequence (P33032 whole entry): as the sequence (P33032 whole entry) above

B1: Ac-Phe-Arg-c(Cys-D-Ala-His-D-Phe-Arg-Trp-Cys)-NH2 (peptide)
peptide: Ac-FRC[dA]H[dF]RWC-NH2
modifications: disulfide 3-9
SMILES: CC(=O)N[C@@H](Cc1ccccc1)C(=O)N[C@@H](CCCNC(=N)N)C(=O)N[C@H]1CSSC[C@@H](C(N)=O)NC(=O)[C@H](Cc2c[nH]c3ccccc23)NC(=O)[C@H](CCCNC(=N)N)NC(=O)[C@@H](Cc2ccccc2)NC(=O)[C@H](Cc2c[nH]cn2)NC(=O)[C@@H](C)NC1=O
For orientation: Ki means a dissociation constant, usually derived from enzyme kinetics or from competition with a known ligand. Consider B1, for which the inhibition constant Ki in test [1] stood at 1.48 nM; in test [2], 14.8 nM; in [3], 2.34 nM; in [4], 491 nM.

Regarding VGC[dA]H[dF]RWC-NH2 (disulfide 3-9; also: hydantoin ring from C(O) with Val1-Gly2) [Hydantoin(C(O)-(Val-Gly))-c(Cys-D-Ala-His-D-Phe-Arg-Trp-Cys)-NH2], the Ki in [1] came to 15.3 nM; in test [2] it was 160 nM; in [3], 8.66 nM; in test [4], 33.4 nM.

Consider IGC[dA]H[dF]RWC-NH2 (disulfide 3-9; also: hydantoin ring from C(O) with Ile1-Gly2) [Hydantoin(C(O)-(Ile-Gly))-c(Cys-D-Ala-His-D-Phe-Arg-Trp-Cys)-NH2], for which the Ki worked out at 11.6 nM in [1], 194 nM in [2], 11.5 nM in test [3] and 28.9 nM in test [4].

As to E[dA]H[dF]RWK-NH2 (lactam 1-7 (inferred); also: hydantoin ring from C(O) with Glu1-D-Ala2) [c[Hydantoin(C(O)-(Glu-D-Ala))-His-D-Phe-Arg-Trp-Lys]-NH2], the inhibition constant (Ki) in test [5] is 1920 nM; in test [6], 45.2 nM; in [7] it was 72.6 nM.

For the molecule E[dA]H[dF]RW[Dab]-NH2 (lactam 1-7; also: hydantoin ring from C(O) with Glu1-D-Ala2) [c[Hydantoin(C(O)-(Glu-D-Ala))-His-D-Phe-Arg-Trp-Dab]-NH2], the Ki in [8] is 877 nM; in test [5], 90.5 nM; in test [6] it was 12.7 nM; in test [7], 28 nM.

As to GRC[dA]H[dF]RWC-NH2 (disulfide 3-9; also: hydantoin ring from C(O) with Gly1-Arg2) [Hydantoin(C(O)-(Gly-Arg))-c(Cys-D-Ala-His-D-Phe-Arg-Trp-Cys)-NH2], the Ki stood at 1.14 nM in test [1], 1.7 nM in test [2], 4.53 nM in test [3] and 783 nM in [4].

Regarding GGC[dA]H[dF]RWC-NH2 (disulfide 3-9; also: hydantoin ring from C(O) with Gly1-Gly2) [Hydantoin(C(O)-(Gly-Gly))-c(Cys-D-Ala-His-D-Phe-Arg-Trp-Cys)-NH2], the Ki in [1] is 20.9 nM; in [2], 69.7 nM; in test [3], 8.32 nM; in test [4] it was 50 nM.

Consider D[dA]H[dF]RW[Dap]-NH2 (lactam 1-7; also: hydantoin ring from C(O) with Asp1-D-Ala2) [c[Hydantoin(C(O)-(Asp-D-Ala))-His-D-Phe-Arg-Trp-Dap]-NH2], for which the cAMP EC50 in the test with hMC3-R (human) is 49.3 nM; with hMC4-R (human) it was 2.12 nM. The Ki is 1820 nM in [5], 19.9 nM in [6] and 66.6 nM in test [7].

B2: Ac-c(Cys-Glu-His-D-2-Nal-Arg-Bal-Ala-Cys)-Pro-Pro-Lys-Asp-NH2 (peptide)
peptide: Ac-CEH[d2Nal]R[Bta]ACPPKD-NH2
modifications: disulfide 1-8
SMILES: CC(=O)N[C@H]1CSSC[C@@H](C(=O)N2CCC[C@H]2C(=O)N2CCC[C@H]2C(=O)N[C@@H](CCCCN)C(=O)N[C@@H](CC(=O)O)C(N)=O)NC(=O)[C@H](C)NC(=O)[C@H](Cc2csc3ccccc23)NC(=O)[C@H](CCCNC(=N)N)NC(=O)[C@@H](Cc2ccc3ccccc3c2)NC(=O)[C@H](Cc2c[nH]cn2)NC(=O)[C@H](CCC(=O)O)NC1=O
On to B2, for which the Ki in test [1] came out at 163 nM; in test [2], 23 nM; in test [3] it was 0.586 nM; in test [4] it was 844 nM.

B3: Ac-Trp-Arg-c(Cys-D-Ala-His-D-Phe-Arg-Trp-Cys)-NH2 (peptide)
peptide: Ac-WRC[dA]H[dF]RWC-NH2
modifications: disulfide 3-9
SMILES: CC(=O)N[C@@H](Cc1c[nH]c2ccccc12)C(=O)N[C@@H](CCCNC(=N)N)C(=O)N[C@H]1CSSC[C@@H](C(N)=O)NC(=O)[C@H](Cc2c[nH]c3ccccc23)NC(=O)[C@H](CCCNC(=N)N)NC(=O)[C@@H](Cc2ccccc2)NC(=O)[C@H](Cc2c[nH]cn2)NC(=O)[C@@H](C)NC1=O
With B3, the Ki in [1] turned out to be 4.7 nM; in test [2], 42 nM; in test [3] it was 2.25 nM; in test [4] it was 1470 nM.

B4: Hydantoin(C(O)-(Nle-Gly))-c(Cys-D-Ala-His-D-Phe-Arg-Trp-Cys)-NH2 (peptide)
peptide: [Nle]GC[dA]H[dF]RWC-NH2
modifications: disulfide 3-9; also: N-terminal hydantoin: C(O) bridges X1 N-terminal N and G2 backbone N, bridge at N via C(O), other end not in the chain
On to B4, for which the Ki was found to be 7.92 nM in [1], 46.4 nM in test [2], 6.7 nM in test [3] and 21.3 nM in test [4].

Take E[dA]H[dF]RW[Orn]-NH2 (lactam 1-7 (inferred); also: hydantoin ring from C(O) with Glu1-D-Ala2) [c[Hydantoin(C(O)-(Glu-D-Ala))-His-D-Phe-Arg-Trp-Orn]-NH2]: the cAMP EC50 with hMC3-R (human) was found to be 39.2 nM; in the test with hMC4-R (human), 4.94 nM. Also, the Ki in test [5] was determined as 2840 nM; in [6] it was 52.4 nM; in [7], 60.4 nM.

For the molecule AGC[dA]H[dF]RWC-NH2 (disulfide 3-9; also: hydantoin ring: C(O) bridging Ala-Gly) [Hydantoin(C(O)-(Ala-Gly))-c(Cys-D-Ala-His-D-Phe-Arg-Trp-Cys)-NH2], the Ki came to 13.9 nM in test [1], 38.4 nM in [2], 5.73 nM in [3] and 18.9 nM in test [4].

Regarding G[dR]C[dA]H[dF]RWC-NH2 (bridge N-2 via C(O) hydantoin; disulfide 3-9; not fully specified) [Hydantoin(C(O)-(Gly-D-Arg))-c(Cys-D-Ala-His-D-Phe-Arg-Trp-Cys)-NH2], the Ki in test [8] amounted to 914 nM; in test [5], 29.2 nM; in test [6], 6.04 nM; in [7], 3.51 nM.

As for Ac-RC[dA]H[dF]RWC-NH2 (disulfide 2-8) [Ac-Arg-c(Cys-D-Ala-His-D-Phe-Arg-Trp-Cys)-NH2], the Ki in the test with hMC5-R (human), P33032 is 430 nM.

As for LGC[dA]H[dF]RWC-NH2 (disulfide 3-9; also: hydantoin ring from C(O) with Leu1-Gly2) [Hydantoin(C(O)-(Leu-Gly))-c(Cys-D-Ala-His-D-Phe-Arg-Trp-Cys)-NH2], the Ki came out at 19.3 nM in test [1], 331 nM in test [2], 26.7 nM in test [3] and 44.6 nM in test [4].

On to E[dA]H[dF]RW[Dap]-NH2 (lactam 1-7 (inferred); also: hydantoin ring from C(O) with Glu1-D-Ala2) [c[Hydantoin(C(O)-(Glu-D-Ala))-His-D-Phe-Arg-Trp-Dap]-NH2], for which the cAMP EC50 in the test with hMC1-R (human) was 56.7 nM; with hMC5-R (human), > 10000 nM; with hMC3-R (human), 18.2 nM; with hMC4-R (human) it was 0.182 nM. Besides, the Ki in [5] amounted to 863 nM; in test [6] it was 4.97 nM; in test [7], 16.4 nM.

Turning to RGC[dA]H[dF]RWC-NH2 (disulfide 3-9; also: hydantoin ring: C(O) bridging Arg-Gly) [Hydantoin(C(O)-(Arg-Gly))-c(Cys-D-Ala-His-D-Phe-Arg-Trp-Cys)-NH2], the Ki is 2.65 nM in [1], 41.3 nM in test [2], 4.17 nM in [3] and 650 nM in [4].

Take D[dA]H[dF]RW[Orn]-NH2 (lactam 1-7; also: hydantoin ring from C(O) with Asp1-D-Ala2) [c[Hydantoin(C(O)-(Asp-D-Ala))-His-D-Phe-Arg-Trp-Orn]-NH2]: the cAMP EC50 in the test with hMC1-R (human) came out at 56.6 nM; in the test with hMC5-R (human), 9300 nM; with hMC3-R (human), 88.6 nM; in the test with hMC4-R (human), 4.5 nM. The Ki is 6400 nM in test [8], 576 nM in [5], 7.81 nM in [6] and 37.7 nM in test [7].
